Measured values from the nanobody polyreactivity screen of Harvey et al. (2022).

Assay: yeast display, Sf9 membrane polyspecificity reagent, FACS + sequencing; frameworks hold sequencing errors
Procedure, shortened: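 After 36–48 hours of galactose induction, yeast (Saccharomyces cerevisiae BJ5465) displaying a synthetic nanobody library were stained at 4 °C for 1 hour with 10% biotinylated, detergent-solubilized Sf9 membrane reagent. Streptavidin microbeads enriched the stained cells before FACS sorting into low and high (top ~1%) gates on anti-HA and streptavidin fluorescence. Each clone's polyreactivity label reflects its gate of origin.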

| Sequence | polyreactivity (PSR sort gate) |
| --- | --- |
| QVQLVESGGGLVQAGGSIRLSCAASGRIFGSYVRGWYRQGPGKESELVAAISRRGGSTYYADSVTWRFTISRDNAKNTVYLQMNSLTPEDTAVYYCAAEFSPSSNPYDYWGQGTQVTVSS | high polyreactivity |
| QVQLVESGGGLVQAGGSLRLSCAASGFTFWAYAMGWYRPAPGKERELVARISGSGGRTYYADSVKGRFTISRDNAKNTVYLQMNSLKPEDTAVYYCAARRYYYPVGYDYWGEGTQVTVSS | high polyreactivity |
| QVQLVESGGGLVQAGGSLRLSCAASGFTIAGYAMGWYRQAPWKERELVAAISRGGITYYADSVKGRFTISRDNAKNTVYLQMNSLKPEDTAVYYCAAGKRWSTKYGYWGQGTQVTVSS | high polyreactivity |
| QVQLVESGGGLVQAGGSLRLSCAASGRIFSYNARGWYRQAPGKERELVAAISSDGSTYYADSVKGRFTISRDNAKNTVYLQMNSRKPEDTAVYYCAARQVLWFDYTTAQVGSYKVNSWGQGTQVTVSS | low polyreactivity |
| QDQLVEACGGLVQAGGSLRLSCASSRSIIRGYAMGWYIQAHGKERELVAVIRRTSVSTYYADSVKGRFTISRDNAKNTVYLQMKCLKPEDTAVYYCNTLRLSSYPYYGYLGQGTQVTVSS | high polyreactivity |
| QVQLVESGGGLVQAGGSLRLSFAASGHTFRYYAMGWYRQAPGKERELVAAITGGGGSTYYADSVKGRFTISRDNAKNTVYFQMNSLKPEDTAVYYCATGGVSGMVGGDYWGQGTQVTVSS | low polyreactivity |
| QVQLVESRGGLVQAGGSLRLSCAASGSTFYRYAMAWYRQAPGKERELVARINTGGSTSYADSVKGRFTISRDNAKNTVYLQMNILKPEDTAVYYCAASSRYAVFGRYYYCGQGTQVTVSS | high polyreactivity |
| QVQLVESGGGLVQAGGSLRLSCAASGYTFYFYAMGWSRQAPGKEREFVAAIRSSGGRTYYADSVKGRFTISRDNAKNTVYLQMNSLKPVDTAVYYCAAAGYYYSVDGAGPRYDYWGQGTQVTVSS | low polyreactivity |
| QVQLVESGGGLVQAGGSLRLSCAASGNTFRRNVMGWYRQAPGKERELVAAINRGGSTTYADSVKGRFTISRDNAKNTVYLQMNSLKAEDTAVYYCNARTLFKWRHGHYYAYDYWGQGTQVTVSS | high polyreactivity |
| QVQLVETGGRLVQAGGSLRVSCAASGITFECYAMGWSRQATGKERELVAAIRSSGTSTYYADSVKGRFTISRDNAKNTVYLQMMSLKPEDTAVYYCNLARSSSRYDYWGQGTQVTVSS | low polyreactivity |
| QVQLVESGVGLVQAGGSLSLSCASSGFIFSANDMGWYRPAPGKERELVADIDSSGRTNYADSVKGRVTISRDNAKNTVYLQMNSLKPEDTAVYYCATPPDDTGGGYRGYDYWGQGTQVTVSS | low polyreactivity |
| QVQLVESGGGLVQAGCSLRLSCAATGFIFKRNAMGWYRQAPGKERELVAAITKSGVNSYYADSVKGRFTISRDNAKNTVYLLMNSLKPEDTAVYYCAARGNRKQAWYKYNYCGQGTQVTVSS | high polyreactivity |
| QVQLVESGGGLVQAGGSLRLSCAASGSTFTYYAMGWYRQAPGKERELVASISGSGSRTYYADSVKGRFTISRDTAKNTVYLQMNSLTPEDTAVYSCAARFYVRWYYYGSYANYWGQGTQVTVSS | high polyreactivity |
| QVQLVESGGGLVQAGGSLRLSCAASGSIFVYYTMGWYRQAPGKERELVASITSGGNTNYADSVKGRFTISRDNAKNTVYLQMNSLKPEDTAVYYCAADYQTVTQADWGTVYDYDYWGQGTQVTVSS | low polyreactivity |
| QVQLVESGGGLVQAGGSLRLSCDASGRNFRRNAMGWYRQAPGKERELVAAITGGGSTNYADSVKGRFTISRDNAKNTVYLQMNSLKPEDTAVYYCAARRYGVRTYRFDSWGQGTQVTVSS | high polyreactivity |
| QLQLVESGGGLVQAGGSLRLSCAASGSIFNDTAMGSYRQAPGKDRELVAAISWNGGSTYYADSVKGRFTISRDNAKNTVYLQMNSLKPQDTAVYYCAVYARYWYLLHYRYGYWGQGTQVTVSS | low polyreactivity |
| QVQLVESGGGLVQAGGSLRLSCAASGSLSSRNAMGAYRQAPGKERELVAAITRGSSTNYADSVKGRFTISRDNAKNTVYLQMNSLKPEDTAVYYCARRYDPVYKGMGYWGQGTQVTVSS | low polyreactivity |
| QVQLVESGGGLVQAGGSLRLSCAASGRIFSKYAMGWNRQAPGKERELVAAITSSTKYADSVKGRFTISRDNAKNTVYLQMNSLKPEDTAVYYCNAEFGWHTYYGADFKMDYWGQGTQVTVSS | high polyreactivity |
| QVQLVESGGGLVQAGGSLRFSCAASGSIFSVYAMGGYRQAPGKERELVASITSGGRTKYADSVKGRFTISRDNAKNTVYLQMNSLKPEDTAVYYCAAGTTWRYGGKYNYWGQGTQVTVSS | low polyreactivity |
| QVQLVESGGGLVQAGGSLRLSCAASGRIFVGYGMGWYRQAPGKERELVASIDTGGSTYYADSVKGRFTISRDNAKNTVYLQMNSLKPDDTAVYYCAADYQSYTSLTGYHNSEGDPWGQGTQVTVSS | low polyreactivity |
| QVQLVESGGGLVQAGGSLRLSCAASGSIFEPNAMVWYRQAPGKERELVAVISIDGITYYADSVKGRFTISRDNAKNSVYLQMNSLKPEDTAVYYCAAYLGQGESYGAYDYWGQGTQVTVSS | low polyreactivity |
| QVQLVESGGGLVQAGGSLRLSCAASGLTFSSYAMGWYRQAPGKERELVAVISRTGGSTYYADSVKGRFTISRDNAKNTVYLQMNSLKPEDTAVYYCAARSYNGWRYDSWGQGTQVTVSS | high polyreactivity |
